Experimental data reported in US20180119119.

Tests used:
Assay in all cases: cell_activity
[1] = tested on: ExoS54-FLAG-TALEN2 (gfp/Venus right TALEN) (Artificial); conditions: paired with TALEN1; T3SS protein injection into EB5 mESC, MOI 100, 3 h; about 30% at MOI 400; indels confirmed by sequencing
[2] = tested on: ExoS54-FLAG-HPRT1-T2 (HPRT1 right TALEN) (Artificial); conditions: paired with HPRT1-T1; human iPSC, MOI 100, 3 h, after 6TG selection, no template; overall mutation efficiency about 1%
[3] = tested on: ExoS54-FLAG-HPRT1-T1 (HPRT1 left TALEN) (Artificial); conditions: paired with HPRT1-T2; human iPSC, MOI 100, 3 h, after 6TG selection, no template; overall mutation efficiency about 1%
[4] = tested on: ExoS54-FLAG-TALEN1 (gfp/Venus left TALEN) (Artificial); conditions: paired with TALEN2; T3SS protein injection into EB5 mESC, MOI 100, 3 h; about 30% at MOI 400; indels confirmed by sequencing

Question: With “CTGGACGGCGACGTAAA (double strand) [gfp TALEN right half-site (top strand)]” as the sequence, how does the activity (% GFP-negative cells) [1] read?
Answer: Its activity (% GFP-negative cells) is 20.

Question: “GATGGGAGGCCATCACATTGT (double strand) [HPRT1 exon 2 TALEN right half-site (top strand)]” was tested. Which activity (% DNA lost XhoI site) [2] did it give?
Answer: Its activity (% DNA lost XhoI site) is 20.

Question: “GTAGGACTGAACGTCTTGCTC (double strand) [HPRT1 exon 2 TALEN left half-site]” was tested. Which activity (% DNA lost XhoI site) [3] did it give?
Answer: The activity (% DNA lost XhoI site) was 20.

Question: How did the activity (% GFP-negative cells) [4] turn out when “TTCACCGGGGTGGTGCC (double strand) [gfp TALEN left half-site]” was run?
Answer: Its activity (% GFP-negative cells) is 20.
